# According to PMC5250619:
# Legend:
# Assay in all cases: BLI
# [1] = target: CAP256-VRC26.10 Fab (human)
# [2] = target: CAP256-VRC26.01 Fab (human)
# [3] = target: CAP256-VRC26.03 Fab (human)
substance,measurement,setting,value
BG505.SOSIP.664 soluble HIV-1 Env trimer (from UniProt Q2N0S6 1-860) (complex),Kd,[1],84 nM
same,koff,[1],0.0045 s⁻¹
same,kon,[1],54000 M⁻¹ s⁻¹
same,Kd,[2],680 nM
same,koff,[2],0.0071 s⁻¹
same,Kd,[3],64 nM
same,koff,[3],0.0041 s⁻¹
same,kon,[3],63000 M⁻¹ s⁻¹
